This is an account of results in PMC4424350, “Unraveling the Specific Regulation of the Central Pathway for Anaerobic Degradation of 3-Methylbenzoate” (The Journal of Biological Chemistry, 2015).

A word on the Kd: it is a measure of binding affinity in units of concentration. Read a high Kd as weaker binding. One may read the stoichiometry N as a count of units in the complex or per binding partner.

Data set [1] concerns T1, MbdR-His6 (Azoarcus sp. CIB), ORF:e0c75ca7.
T1 sequence: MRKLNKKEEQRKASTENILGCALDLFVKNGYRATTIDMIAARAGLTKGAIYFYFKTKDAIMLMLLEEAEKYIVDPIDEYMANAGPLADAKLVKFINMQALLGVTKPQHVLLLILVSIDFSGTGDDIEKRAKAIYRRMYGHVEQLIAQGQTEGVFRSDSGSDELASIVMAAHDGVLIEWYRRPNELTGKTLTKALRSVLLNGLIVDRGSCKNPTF
Kind of data set: DNase I footprinting. To be noted: EMSA: 20 mM Tris-HCl pH 7.5, 10% glycerol, 50 mM KCl, 0.05 nM probe, 250 ug/ml BSA, 50 ug/ml salmon sperm DNA, 20 min 30 C; footprinting: same buffer, 2 nM …. Background: A gel shift assay detects complexes by their altered migration in electrophoresis.

Data set [2] shares this test system. Kind of data set: EMSA. To be noted: EMSA: 20 mM Tris-HCl pH 7.5, 10% glycerol, 50 mM KCl, 0.05 nM probe, 250 ug/ml BSA, 50 ug/ml salmon sperm DNA, 20 min 30 C; footprinting: same buffer, 2 nM ….
Data set [3] deals with MbdR-His6 protein (Azoarcus sp. CIB). Kind of data set: AUC; sedimentation velocity (48,000 rpm, 20 °C) and sedimentation equilibrium (5000 to 15,000 rpm) of MbdR-His6 at 11 to 46 μM in 50 mM NaH2PO4, 300 mM KCl, 20 mM imidazole, pH 8; data not shown.
Data set [4] relates to MbdR-His6 (Azoarcus sp. CIB). Kind of data set: EMSA. The note with it: relative Kd; EMSA: 20 mM Tris-HCl pH 7.5, 10% glycerol, 50 mM KCl, 0.05 nM probe, 250 ug/ml BSA, 50 ug/ml salmon sperm DNA, 20 min 30 C; footprinting: same buffer, 2 nM ….

For “AATTCCCTGCGCGCGGCACTATGTCGGGGGAAATTCAGTCATTGCGGAAAACGGCGTTTCCGCGAGCTCGCCAACAAAAGGTCTGACAGCCCCGGTCCCCACATGCGGCTACCATATACCGGCTGGCTGGTATGTGTCAACGACTGATACGGAAGACCTCGAAATCGGAGGGAGGAAAATGGGAAAAGGACCTTTGAGAGCATGGACGGCGCATGGCGAGGAGATGGTATTACGGTAAGTGCTCCACGAGT (double strand) [PB1 probe (251 bp)]”, the binding entry in data set [1] is given as “binds”. In addition, in data set [2], the Kd is 3.72 nM.

For the substance “ACTGAGGCCCCGCCCAAGTTTTCATTATCTCTAGTACCGGCAAAGAAGGGCCAAACAGATCTATTGCATACTATCCGGTTAGTACGTCTTTTGACCAATTGATCTACACGAGGGGAAACCATGTTCGAGAATTTCAACCATAGTGCTCTGCGTCTTGGAGCGCCAGGCGCTTTAGCGCAGCGTTTGCTGCCGAAGCATCAGGGTCACTATGTTGATGCGCATTGAGGGAATT (double strand) [PA probe (225 bp)]”, the binding entry in data set [1] and in data set [2] was “binds” each time.

In data set [3], MbdR-His6 protein (natural protein) gave a stoichiometry N of 2.

As to PB1 probe (251 bp), the Kd in data set [4] amounted to 3.72 nM.

Regarding PO probe (271 bp), the Kd in data set [4] turned out to be 1.71 nM.
